Target: soluble CD28-Ig Fc fusion protein (extracellular domain of human CD28 and Fc portion of human IgG1; R&D Systems) (human), P10747
Experiment: competitive FACS on transfected 293 cells; competitor sCTLA-4-Ig; score 0/1/2 = CD28/CTLA-4 binding ratio like / greater / significantly greater than WT hB7-1

Binding Score	Binder
1	Round 2 CD28A4-9 (ligand, not fully specified; X: residue not identified in the source; ends and bridges not checked) ITPKSVTKRVKETVMLSCDYNTSTEKLTSLRIYWQKDSKMVLAILPGKVQVWPEYKNRTITDMNDNPRIVILALRLSDSGTYTCVIQKPVLKGAYKLEHLTSVRLMIRADFPVPTINDLGNPSPNIRRLICSTSGGFPRPHLYWLENGEELNATNTTVSQDPETKLYMISSELDFNVTNNHSIVCLIKYGELSVSQIFPWSKPKQEPPIDQLPFWVIIPVSGALVLTAVVLYCPACRHVARWKRTRRNEETVGTERLSPIYLGSAQSRAEVPSLSX
1	Round 2 CD28A12-5 (ligand, not fully specified; X: residue not identified in the source; ends and bridges not checked; also: glycosylated membrane protein, sites not given here) ITPKSVTKRVKETVMLSCDYNTSTEELTSLRIYWRKDSKMXLAILPGKVQVWPEYKNRTITDMNDNLRIVILALRLSDSGTYTCVIQKPDLKGAYKLEHLTSVRLMIRADFPVPTINDLGNPSPNIRRLICSTSGGFPRPHLYWLENGEELNATNTTVSQDPGTELYMISSELDFNVTNNHSIVCLIKYGELLVSQIFPWSKPKQEPPIDQLPFWVIIPVSGALVLTAVVLYCLACRHVARWKRTRRNEETVGTERLSPIYLGSAQSSG

From US7183376
